The supplement of paper PMC12764529
± gives the half width of the 95% confidence interval.

Assay: folding stability dG unfold (combined trypsin and chymotrypsin); higher = more stable
Procedure, shortened: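 Sequencing followed digestion of designed mini-proteins with trypsin and chymotrypsin, each at 11 concentrations in threefold dilutions together with a no-protease condition. The mini-proteins were under 80 residues, had no cysteine, sat in a PA-tagged cDNA display construct, and were kept only if AlphaFold2 dimer inter-PAE was above 15. From the counts, Bayesian fitting gave K50, and unfolding free energy was derived against a sequence-predicted unfolded-state K50 and a shared folded-state K50, per protease or combined.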

| Sequence | folding stability dG unfold |
| --- | --- |
| SAGGKTISIEFYMPPGEPPPSIEEIAKELFPGYKDIKIKNIEIEDVEPDPDNGMKYVRVSFTIEVEPPSAGG [r13_10_TrROS] | 3.39 ± 0.25 kcal/mol |
| SAGSSAVEVDIDEELKEKLKKLIDPDKPIEITRLKTTTNETIILITEKGSGKKYIFTRNKEGKIEIKKSAGG [r19_70_JUSTAS] | 2.38 ± 0.069 kcal/mol |
| SAGGSAGGSMKIPEDETYEEKLPDGRKVTYTWEPESGLLKTTTTDPNNDTPTTSTYKVPPSSLLSAGGSAGG [r6_407_JUSTAS] | 0.262 ± 0.25 kcal/mol |
| SAGGSAMKITITVEKKEDGTYRVTIEIDGKKIEIEMSVEDLKKKLEELAKELFPDKPIKVEVKPVPSAGGSA [r15_925_TrROS_Hall] | 3.83 ± 0.2 kcal/mol |
| SAGLKVRIRTKDGREIEIEVSEEEAERLVKELEDAGFTVERVEVEELEPEEEKEELEEEERELKEELEESAG [r5_645_TrROS_Hall] | 2.72 ± 0.32 kcal/mol |
| SAGGSAGGSAGGKTYKITVSSGDTYLTISIELPDGLVLTYKITPNSIEVEIKPLKDFNESAGGSAGGSAGGS [r10_1169_TrMRF] | 5.51 ± 0.43 kcal/mol |
| SAGGSAGGSAGKVVVDFGKPALAEAFGVPLSEIENMSEEEALALAKPLVEEGVVDEVVLSSAGGSAGGSAGG [r11_80_TrMRF] | 0.88 ± 0.099 kcal/mol |
| SAGGSAGGKLKINNEEIGPDKSFPLKKGKEIKVYKDYVKVFVIDPKTNKKKEYTIKLEDLKKLFSAGGSAGG [r6_940_TrMRF] | 1.05 ± 0.18 kcal/mol |
| SAGGSAGGSKGVKELVIVVPPDKPEKIEEFLKKLRDEYAKDIKVLEVKETPDGGYIAKIKITDSAGGSAGGS [r12_91_TrMRF] | 1.85 ± 0.12 kcal/mol |
| SNYINEPIYVPPSVDPEEVKKKVEERVEEIKKKLGLPPNISVSVTPVALPEGSVTYRVTVTVDGETYNSSSA [r9_776_JUSTAS] | 0.683 ± 0.15 kcal/mol |
| SAGGSAGGSLSLPEGFKLSSLVSVEELPGVLRIYFLDPEKPLLYEVVYDLETGEQTVERIPIGSAGGSAGGS [r12_206_JUSTAS] | 2.5 ± 0.072 kcal/mol |
| SAGGSAGGMILIKNEDGSLYLIEVETVTVTVKVKLPEELKELLKGIKPGDTITVTVTKVRIVKLSAGGSAGG [r6_907_TrROS_Hall] | 4.32 ± 0.17 kcal/mol |
| SAGGSAGGSAGGMTKLEPLATEPNPLKVLTKVTTTDPVTGKPKTTIVETEIPVPESELGSAGGSAGGSAGGS [r10_846_JUSTAS] | 0.0083 ± 0.12 kcal/mol |
| SAGGSAGGSAEELVKYLAKEHGHPPGKEVTIPFDNWMIKIRYNNDGVPVGVEIKPMPPDDMSAGGSAGGSAG [r3_468_TrROS] | 0.593 ± 0.098 kcal/mol |
| SAGGWITVNQIRDLAKELPPGWRIKIKIEYPGKKHEHTIPPGDPITIPPNMPPEDITRIEITEIEPYSAGGS [r16_97_TrROS] | 0.575 ± 0.11 kcal/mol |
| SAGGSAGGDEIADKVKDLLRKHGWPVKEVEVTVMPHPPGRVYVMIEITMEHPGKKWTMEIMVEVSAGGSAGG [r6_533_TrROS] | 4.66 ± 0.13 kcal/mol |

| Sequence | folding stability dG unfold |
| --- | --- |
| SAGGSADRVTVTVTVRVRDPATGEWREVTETVTVPAPLTLEITLPPGWRLRLTLEDGELRLEVEPESAGGSA [r2_109_TrROS_Hall] | 3.93 ± 0.063 kcal/mol |
| SAGGSAGGSAGGSLPLILRLAEENGFSVSAVPIPETGTYKAVVTLPDGKPITIELPLTLSAGGSAGGSAGGS [r4_121_TrMRF] | 0.804 ± 0.2 kcal/mol |
| SAGGSAGMTITSATEVGTTTFNGGSITHYTLTTPSGKTITGEVDPATGTLTISFPETGLSITIPPKSAGGSA [r15_159_JUSTAS] | 1 ± 0.1 kcal/mol |
| SSPANITTTTTSSPLNLETFDPKTGKKKRINYTLTTETVTFPGGEVVTTTVLKDASTGKVTTLSTTVTPTSA [r9_402_JUSTAS] | 1.08 ± 0.12 kcal/mol |
| SAGGKYTFTPAPPNSESEVVKKAEELKKKLAEEPGVDKKIEIEIKPSPDGSLTIKVTFSTGTYDAAASAGGS [r16_356_JUSTAS] | 0.942 ± 0.12 kcal/mol |
| SEPWELVEERELPPNAVITFPNGEKLEIDPEKARVRVWRRPDSVRVLVVLKDGTVLEFEFYAPPRVTDDDSA [r9_348_TrMRF] | 2.69 ± 0.1 kcal/mol |
| SAGGSAGGSWKIVEIEVQRFPDGMYMVEIRFPDHGMPVTVHIDPPKNKITIYFPNGRSIEIPFSAGGSAGGS [r12_88_TrROS] | 3.99 ± 0.12 kcal/mol |
| SSSVSVTRTRDPRTGRLVVTVSMNYEDDPEEAVEAAKALLEAAGLDVAEVLSITVDPSTGTVTIPIAVAPSA [r9_876_JUSTAS] | 3.05 ± 0.064 kcal/mol |
| SAGGSAGGSAMPEPVLIVVEVESLEEAKKLAEELAVEGVKVEVDPESGLVKIEIEKESLLESAGGSAGGSAG [r3_186_TrMRF] | 1.12 ± 0.11 kcal/mol |
| SAGGSAGGMTKTEVTVTVEKVPDGTYVVKTTKTTTTTNPDGTLTSSTTTTTKTVTPEELAAVLASAGGSAGG [r6_974_JUSTAS] | 3.16 ± 0.11 kcal/mol |
| SANGEMTMMFEFEIFFPGLGYRGKIYVMMRIEPTPNQIRIDLMIMIEIEPIPPPPPKVPPEQNPEDADDSAG [r14_435_TrROS] | 5.23 ± 0.48 kcal/mol |
| SAGGSMALVEIERPGGEGALRTVDTSNPAAVKAFVDAVPEDEPVRVYTDDPAVVELFKEAGFDEVLLESAGG [r13_476_JUSTAS] | 0.55 ± 0.096 kcal/mol |
| SAGGSAGGGSISIPGPGPVSATTDPVTKTLVTVTYPTSEVRIPIEGDKFTEAETTPLPPPPALTSAGGSAGG [r6_847_JUSTAS] | 0.708 ± 0.072 kcal/mol |
| SAGGSAGGSEAKIELEYDEETNTLTVRIEVDGELYEERIEVTIEPAPPPPPPVEVVVVELPEESAGGSAGGS [r12_70_TrROS_Hall] | 2.4 ± 0.49 kcal/mol |
| SAGGVKEIEIPNGMRITDVDPPDGYWKIKIENPDNGKEVERPIPPGDKLKIPPNAPVTITEIEPYPPSAGGS [r16_123_TrROS] | < -1 kcal/mol |
